Assay results from article PMC3945115 (Free radical biology & medicine, 2013).
Substitutions are numbered along the chain they refer to. Numbers in names are those of the source.

B1: S167D-catalase (phospho-mimic mutant of human catalase) (enzyme, UniProt P04040 1-527, looked up)
chain: MADSRDPASDQMQHWKEQRAAQKADVLTTGAGNPVGDKLNVITVGPRGPLLVQDVVFTDEMAHFDRERIPERVVHAKGAGAFGYFEVTHDITKYSKAKVFEHIGKKTPIAVRFSTVAGESGSADTVRDPRGFAVKFYTEDGNWDLVGNNTPIFFIRDPILFPSFIHDQKRNPQTHLKDPDMVWDFWSLRPESLHQVSFLFSDRGIPDGHRHMNGYGSHTFKLVNANGEAVYCKFHYKTDQGIKNLSVEDAARLSQEDPDYGIRDLFNAIATGKYPSWTFYIQVMTFNQAETFPFNPFDLTKVWPHKDYPLIPVGKLVLNRNPVNYFAEVEQIAFDPSNMPPGIEASPDKMLQGRLFAYPDTHRHRLGPNYLHIPVNCPYRARVANYQRDGPMCMQDNQGGAPNYYPNSFGAPEQQPSALEHSIQYSGEVRRFNTANDDNVTQVRAFYVNVLNEEQRKRLCENIAGHLKDAQIFIQKKAVKNFTEVHPDYGSHIQALLDKYNAEKPKNAIHTFVQSGSHLAAREKANL
B2: recombinant human wildtype catalase incubated with PKCδ (phosphorylated at S167) (enzyme, UniProt P04040 1-527, looked up)
chain: B1 chain with D167S
modifications: phosphoserine at 167
B3: recombinant human wildtype catalase (enzyme, UniProt P04040 1-527, looked up)
chain: B1 chain with D167S

Tests used:
[1] = biological target: the molecule itself; assay: cell-based or functional assay
SEC [2] = biological target: the molecule itself; assay: SEC
SEC [3] = biological target: the molecule itself; assay: SEC; remark: listed apart in the source

| Protein | rate of H2O2 decomposition by the purified protein, against wildtype catalase [1] | stoichiometry N (SEC [2]) | Dimer (%) (SEC [3]) | Tetramer (%) (SEC [3]) |
| --- | --- | --- | --- | --- |
| B1 | 2 fold | 4 | 9.2% | 44.4% |
| B2 |  | 4 | 6.23% | 51.8% |
| B3 |  | 2 | 53% | 4.78% |
